Results on seven molecules are retold here after US11015206B2, “Compositions and methods comprising sequences having hydroxyphenylpyruvate dioxygenase (HPPD) activity” (PIONEER HI-BRED INTERNATIONAL, INC., priority 2014, dated 2021).

Format in all cases: biochemical, Z. mays
The test system of series [1] is 4-hydroxyphenylpyruvate dioxygenase (HPPD). Nature of the series: Estimate of kcat from initial rate at saturating hydroxyphenylpyruvate without inhibitor (ON rate ratio assay). In short, it runs like this:
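Reactions used 60 or 120 nM HPPD and saturating 100 μM hydroxyphenylpyruvate without inhibitor. kcat was estimated from the initial rate at the known enzyme concentration.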

The test system is the same in series [2]. Nature of the series: Insensitivity parameter (ON × OFF) and trait fitness (ON × OFF × kcat/KM or × kcat). On the set-up: key to ON × OFF / Insensitivity, mesotrione, ON × OFF / Insensitivity, tembotrione, ON × OFF / Insensitivity, topramezone, ON × OFF / Insensitivity, sulcotrione, ON × OFF / Insensitivity, isoxaflutole (DKN), ON × OFF: insensitivity = ON rate ratio × OFF rate ratio (surrogate for KD). In outline:
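Calculated, not measured directly: ON rate ratio × OFF rate ratio gives an insensitivity parameter serving as a KD surrogate.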

Series [3] has the same test system. The series is described as follows: OFF rate ratio: release of inhibitor from pre-formed enzyme-inhibitor complex. The note with it: Table 7; tembotrione; combinatorial variants. In outline: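 HPPD (7.2 μM) pre-incubated 1 h at RT with inhibitor (8 μM), then diluted into 25 mM Hepes pH 7, 2 mM ascorbate, 10 μM FeSO4, 100 μM HPP, 50 nM HGD; A320 followed 12 min. Ratio = steady-state rate with inhibitor over initial rate of inhibitor-free enzyme.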

The test system is the same in series [4]. Nature of the series: ON rate ratio: HPPD reaction rate with vs without inhibitor in the 70 to 90 second interval. The note with it: Table 7; tembotrione; combinatorial variants. In outline:
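Time courses of HPPD reactions, 60 or 120 nM enzyme with 100 μM HPP substrate, run with and without 4 μM inhibitor (e.g. mesotrione, tembotrione). Value is the rate with inhibitor over rate without, taken over 70–90 s; higher ratio reflects slower kON.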

Where [5] appears, read: Table 7, combinatorial variants.
The mark [6] stands for this setting: Table 7, tembotrione, combinatorial variants.

B1: P056028-B-01 (protein)
chain: MGPTPTATAAGAAVAAASAAEQAAFRLVGHRNFVRFNPRSDRFQTLAFHHVELWCADAASAAGRFSFALGVPLAARSDLSTGNSAHASLLLRSGSLSLLFTAPYAHGADAATAALPSFSAAAARRFAADHGLAVRAVALRVADAEDAFRASVAAGARPAFGPVDLGRGFRLAEVELYGDVVLRYVSYPDGAAGEPFLPGFEGVASPGAADYGLSRFDHIVGNVPELAPAAAYMAGFTGFHEFAEFTTEDVGTTESGLNSMALANNSENVLLPLNEPVHGTKRRSQIQTFLDHHGGPGVQHIALASDDVLRTLREMRARSAMGGFEFLPPPLSDYYDGVRKCAGDVLTEAQINECQELGVMVDRDDEGVLLQIFTKPVGDRPTFFLELIQRIGCMEKDEKGQEYQKGGCGGFGKGNFGQLFKSIEDYEKSLEAKQAAAAATAQGS
modifications: Zea mays variant form created by artificial means.
The kcat is the number of substrate molecules converted per active site and unit of time at saturation. As to B1, the kcat in series [1] (Megatable 3, shuffled variants) was 0.31 s⁻¹; in series [1] (setting [5]), 0.31 s⁻¹. The “ON × OFF” value in series [2] (Megatable 3, shuffled variants) is 0.230; in series [2] (setting [6]), 0.230. For the same molecule, the “ON × OFF × kcat” value in series [2] (Megatable 3, shuffled variants) was found to be 4.28; in series [2] (setting [6]), 4.28. In addition, in series [3], the OFF rate ratio was determined as 0.309. For the same molecule, the ON rate ratio in series [4] was 0.745.

B2: P056028-B-10 (protein)
chain: MGPTPTATAAGAAVAAASAAEQAAFRLVGHRNFVRFNPRSDRFQTLAFHHVELWCADAASAAGRFSFALGVPLAARSDLSTGNSAHASLLLRSGSLSLLFTAPYAHGADAATAALPSFSAAAARRFAADHGLAVRAVALRVADAEDAFRASVAAGARPAFGPVDLGRGFRLAEVELYGDVVMRYVSYPDGAAGEPFLPGFEGVASPGAADYGLSRFDHIVGNVPELAPAAAYMAGFTGFHEFAEFTTEDVGTTESGLNSMALANNSENVLLPLNEPVHGTKRRSQIQTFLDHHGGPGVQHIALASDDVLRTLREMRARSAMGGFEFLPPPLSDYYDGVRRCAGDVLTEAQINECQELGVMVDRDDEGVLLQIFTKPVGDRPTFFVEIIQRIGCMEKDEKGQEYQKGGCGGFGKGNFGQLFKSIEDYEKSLEAKQAAAAATAQGS
modifications: Zea mays variant form created by artificial means.
Take B2: the kcat is 0.298 s⁻¹ in series [1] (Megatable 3, shuffled variants) and 0.298 s⁻¹ in series [1] (setting [5]). Also, the “ON × OFF” value in series [2] (Megatable 3, shuffled variants) is 0.230; in series [2] (setting [6]), 0.230. The “ON × OFF × kcat” value in series [2] (Megatable 3, shuffled variants) stood at 4.12; in series [2] (setting [6]), 4.12. In addition, the OFF rate ratio in series [3] is listed as 0.327. Besides, the ON rate ratio in series [4] is given as 0.703.

B3: P056028-B-05 (protein)
chain: MGPTPTATAAGAAVAAASAAEQAAFRLVGHRNFVRFNPRSDRFQTLAFHHVELWCADAASAAGRFSFALGVPLAARSDLSTGNSAHASLLLRSGSLSLLFTAPYAHGADAATAALPSFSAAAARRFAADHGLAVRAVALRVADAEDAFRASVAAGARPAFGPVDLGRGFRLAEVELYGDVVLRYVSYPDGAAGEPFLPGFEGVASPGAADYGLSRFDHIVGNVPELAPAAAYMAGFTGFHEFAEFTTEDVGTTESGLNSMALANNSENVLLPLNEPVHGTRRRSQIQTFLDHHGGPGVQHIALASDDVLRTLREMRARSAMGGFEFLPPPLSDYYDGVRKCAGDVLTEAQINECQELGVMVDRDDEGVLLQIFTKPVGDRPTFFLELIQRIGCMEKDEKGQEYQKGGCGGFGKGNFGQLFKSIEDYEKSLEAKQAAAAATAQGS
modifications: Zea mays variant form created by artificial means.
With B3, the kcat in series [1] (Megatable 3, shuffled variants) was 0.305 s⁻¹; in series [1] (setting [5]), 0.305 s⁻¹. Further, the “ON × OFF” value in series [2] (Megatable 3, shuffled variants) is 0.211; in series [2] (setting [6]), 0.211. Besides, the “ON × OFF × kcat” value in series [2] (Megatable 3, shuffled variants) came out at 3.85; in series [2] (setting [6]) it was 3.85. Besides, the OFF rate ratio in series [3] is given as 0.287. Moreover, in series [4], the ON rate ratio is listed as 0.734.

B4: P056028-B-03 (protein)
chain: MGPTPTATAAGAAVAAASAAEQAAFRLVGHRNFVRFNPRSDRFQTLAFHHVELWCADAASAAGRFSFALGVPLAARSDLSTGNSAHASLLLRSGSLSLLFTAPYAHGADAATAALPSFSAAAARRFAADHGLAVRAVALRVADAEDAFRASVAAGARPAFGPVDLGRGFRLAEVELYGDVVLRYVSYPDGAAGEPFLPGFEGVASPGAADYGLNRFDHIVGNVPELAPAAAYMAGFTGFHEFAEFTTEDVGTTESGLNSMALANNSENVLLPLNEPVHGTKRRSQIQTFLDHHGGPGVQHIALASDDVLRTLREMRARSAMGGFEFLPPPLSDYYDGVRRCAGDVLTEAQINECQRLGVMVDRDDEGVLLQIFTKPVGDRPTFFLEIIQRIGCMEKDEKGQEYQKGGCGGFGKGNFGQLFKSIEDYEKSLEAKQAAAAATAQGS
modifications: Zea mays variant form created by artificial means.
As for B4, the kcat in series [1] (Megatable 3, shuffled variants) is 0.298 s⁻¹; in series [1] (setting [5]) it was 0.298 s⁻¹. For the same molecule, the “ON × OFF” value in series [2] (Megatable 3, shuffled variants) amounted to 0.259; in series [2] (setting [6]) it was 0.259. In addition, the “ON × OFF × kcat” value in series [2] (Megatable 3, shuffled variants) amounted to 4.63; in series [2] (setting [6]), 4.63. In addition, in series [3], the OFF rate ratio amounted to 0.353. For the same molecule, the ON rate ratio in series [4] stood at 0.732.

B5: P056028-B-07 (protein)
chain: MGPTPTATAAGAAVAAASAAEQAAFRLVGHRNFVRFNPRSDRFQTLAFHHVELWCADAASAAGRFSFALGVPLAARSDLSTGNSAHASLLLRSGSLSLLFTAPYAHGADAATAALPSFSAAAARRFAADHGLAVRAVALRVADAEDAFRASVAAGARPAFGPVDLGRGFRLAEVELYGDVVLRYVSYPDGAAGEPFLPGFEGVASQGAADYGLSRFDHIVGNVPELAPAAAYMAGFTGFHEFAEFTTEDVGTTESGLNSMALANNSENVLLPLNEPVHGTKRRSQIQTFLDHHGGPGVQHIALASDDVLRTLREMRARSAMGGFEFLPPPLSDYYDGVRRCAGDVLTEAQINECQELGVMVDRDDEGVLLQIFTKPVGDRPTFFIELIQRIGCMEKDEKGQEYQKGGCGGFGKGNFGQLFKSIEDYEKSLEAKQAAAAATAQGS
modifications: Zea mays variant form created by artificial means.
Consider B5, for which the kcat is 0.153 s⁻¹ in series [1] (Megatable 3, shuffled variants) and 0.153 s⁻¹ in series [1] (setting [5]). For the same molecule, the “ON × OFF” value in series [2] (Megatable 3, shuffled variants) is recorded as 0.307; in series [2] (setting [6]), 0.307. Further, the “ON × OFF × kcat” value in series [2] (Megatable 3, shuffled variants) came to 2.83; in series [2] (setting [6]) it was 2.83. Besides, the OFF rate ratio in series [3] is reported as 0.389. In addition, the ON rate ratio in series [4] was determined as 0.788.

B6: P056028-B-04 (protein)
chain: MGPTPTATAAGAAVAAASAAEQAAFRLVGHRNFVRFNPRSDRFQTLAFHHVELWCADAASAAGRFSFALGVPLAARSDLSTGNSAHASLLLRSGSLSLLFTAPYAHGADAATAALPSFSAAAARRFAADHGLAVRAVALRVADAEDAFRASVAAGARPAFGPVDLGRGFRLAEVELYGDVVMRYVSYPDGAAGEPFLPGFEGVASSGAADYGLNRFDHIVGNVPELAPAAAYMAGFTGFHEFAEFTTEDVGTTESGLNSMALANNSENVLLPLNEPVHGTKRRSQIQTFLDHHGGPGVQHIALASDDVLRTLREMRARSAMGGFEFLPPPLSDYYDGVRKCAGDVLTEAQINECQELGVMVDRDDEGVLLQIFTKPVGDRPTFFLEIIQRIGCMEKDEKGQEYQKGGCGGFGKGNFGQLFKSIEDYEKSLEAKQAAAAATAQGS
modifications: Zea mays variant form created by artificial means.
With B6, the kcat is 0.275 s⁻¹ in series [1] (Megatable 3, shuffled variants) and 0.275 s⁻¹ in series [1] (setting [5]). The “ON × OFF” value came to 0.196 in series [2] (Megatable 3, shuffled variants) and 0.196 in series [2] (setting [6]). In addition, the “ON × OFF × kcat” value in series [2] (Megatable 3, shuffled variants) turned out to be 3.24; in series [2] (setting [6]) it was 3.24. Also, in series [3], the OFF rate ratio is on record as 0.273. Further, in series [4], the ON rate ratio came to 0.718.

B7: P056028-B-06 (protein)
chain: MGPTPTATAAGAAVAAASAAEQAAFRLVGHRNFVRFNPRSDRFQTLAFHHVELWCADAASAAGRFSFALGVPLAARSDLSTGNSAHASLLLRSGSLSLLFTAPYAHGADAATAALPSFSAAAARRFAADHGLAVRAVALRVADAEDAFRASVAAGARPAFGPVDLGRGFRLAEVELYGDVVLRYVSYPDGAAGEPFLPGFEGVASPGAADYGLSRFDHIVGNVPELAPAAAYMAGFTGFHEFAEFTTEDVGTTESGLNSMALANNSENVLLPLNEPVHGTKRRSQIQTFLDHHGGPGVQHIALASDDVLRTLREMRARSAMGGFEFLPPPLSDYYDGVRRCAGDVLTEAQINECQKLGVMVDRDDEGVLLQIFTKPVGDRPTFFLEIIQRIGCMEKDEKGQEYQKGGCGGFGKGNFGQLFKSIEDYEKSLEAKQAAAAATAQGS
modifications: Zea mays variant form created by artificial means.
As for B7, the kcat is 0.333 s⁻¹ in series [1] (Megatable 3, shuffled variants) and 0.333 s⁻¹ in series [1] (setting [5]). Further, the “ON × OFF” value stood at 0.252 in series [2] (Megatable 3, shuffled variants) and 0.252 in series [2] (setting [6]). Moreover, the “ON × OFF × kcat” value in series [2] (Megatable 3, shuffled variants) stood at 5.03; in series [2] (setting [6]), 5.03. Besides, in series [3], the OFF rate ratio came to 0.353. In series [4], the ON rate ratio is listed as 0.713.
